Laboratory results reported in patent US20040010124A1 (MacroGenics, published 2004).
Substitutions are numbered along the chain they refer to.

B1: chimeric antibody ch3G8 (ch3G8VH/ch3G8VL) (antibody, V domains shown)
VH: QVTLKESGPGILQPSQTLSLTCSFSGFSLRTSGMGVGWIRQPSGKGLEWLAHIWWDDDKRYNPALKSRLTISKDTSSNQVFLKIASVDTADTATYYCAQINPAWFAYWGQGTLVTVSS
VL: DTVLTQSPASLAVSLGQRATISCKASQSVDFDGDSFMNWYQQKPGQPPKLLIYTTSNLESGIPARFSASGSGTDFTLNIHPVEEEDTATYYCQQSNEDPYTFGGGTKLEIK
notes: Mouse 3G8 VH (FR4 ala to ser) on human Cγ1 and mouse 3G8 VL on human Cκ; also called chimeric 3G8; ch3G8-γ1
B2: hu3G8VH-37/hu3G8VL-1 (antibody, V domains shown)
VH: QITLKESGPTLVKPTQTLTLTCTFSGFSLSTSGVGVGWIRQPPGKALEWLALIWWDDDKRYSPSLKSRLTISKDTSKNQVVLTMTNMDPVDTATYYCAKINPAYFAYWGQGTLVTVSS
VL: DIVMTQSPDSLAVSLGERATINCKASQSVDFDGDSFMNWYQQKPGQPPKLLIYTTSNLESGVPDRFSGSGSGTDFTLTISSLQAEDVAVYYCQQSNEDPYTFGQGTKLEIK
notes: Human Cγ1/Cκ constant regions; HEK-293
B3: hu3G8VH-45/hu3G8VL-1 (antibody, V domains shown)
VH: B2 VH with L52H, S72T, K99Q, A106D
VL: B2 VL
notes: as for B2
B4: hu3G8VH-40/hu3G8VL-1 (antibody, V domains shown)
VH: B2 VH with L52H, W54F, K99R, Y104W
VL: B2 VL
notes: as for B2
B5: hu3G8VH-42/hu3G8VL-1 (antibody, V domains shown)
VH: B2 VH with L52H, S72T, K99R, Y104W
VL: B2 VL
notes: as for B2
B6: hu3G8VH-44/hu3G8VL-1 (antibody, V domains shown)
VH: B2 VH with L52H, S72T, K99H, A106D
VL: B2 VL
notes: as for B2
B7: hu3G8VH-43/hu3G8VL-1 (antibody, V domains shown)
VH: B2 VH with L52H, S72T, K99R
VL: B2 VL
notes: as for B2

Biological target: T1, soluble form of human CD16A (sCD16A) (human, UniProt P08637 17-203)
T1 construct: CD16A gene truncated just prior to the transmembrane region, expressed in HEK-293; The last seven residues come from vector pCDNA3.1; also called sFcRIIIa
Assay: in vitro, method not given
Description: The same format was used to assay binding of sFcRs to immune complexes (IC) formed on the ELISA plate between ch4-4-20 and FITC-BSA.
After one hour, binding of the soluble receptor to the IC was detected using streptavidin-HRP conjugate and TMB development.

T1 sequence (P08637 other isoform, or with tags, fused parts or gaps limits assumed): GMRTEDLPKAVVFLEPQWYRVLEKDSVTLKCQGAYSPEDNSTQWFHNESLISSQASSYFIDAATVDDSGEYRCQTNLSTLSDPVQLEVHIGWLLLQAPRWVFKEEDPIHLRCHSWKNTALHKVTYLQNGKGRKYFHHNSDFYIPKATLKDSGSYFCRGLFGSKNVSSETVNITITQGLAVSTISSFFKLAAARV

Binding result, binds:
B1

Biological target: T1, soluble form of human CD16A (sCD16A)
Assay: ELISA, sCD16A captured by mAb LNK-16
Method: The plate was washed and dilutions of recombinant antibodies starting at 0.5 μg/ml in PBS-T-BSA were then added and incubated for 1 hr at room temp. […] After stopping color development using dilute sulfuric acid, the plate was read at 450 nm.

Binding result, binds:
B2
B3
B4
B5
B6
B7
